B1: murine RANKL heterodimeric variant mD1 (mouse Dimer 1) (ligand)
chain 1: EAQPFAHLTINAASIPSGSHKVTLSSWYHDRGWADISNMTLSNGKLRVNQDGFYYLYANISFRHHETSGSVPTDYLQLMVYVVKTSIKIPSSHNLMKGGSTKNWSGNSEFHYYSINVGGFFKLRAGEEISIQVSNPSLLDPDQDATYFGAFKVQDID
chain 2: EAQPFAHLTINAASIPSGSHKVTLSSWYHDRGWAKISNMTLSNGKLRVNQDGYYYLYANICFRHHETSGSVPTDYLQLMVYVVKTSIKIPSSHNLMDGGSTKNWSGNSEFHFYSINVGGYFKLRAGEEISIQVSNPSLLDPDQDATYFGAFKVQDID
notes: range 160-316; Heterodimer of monomer A (His-tagged) and monomer B, co-expressed in E. coli; also called RANKL dimer 1; RANK-L Dimer 1; not shown: hexahistidine-tag fused to monomer A
B2: human RANK-Fc (Fc fusion, UniProt Q9Y6Q6 30-212, looked up)
chain: IAPPCTSEKHYEHLGRCCNKCEPGKYMSSKCTTTSDSVCLPCGPDEYLDSWNEEDKCLLHKVCDTGKALVAVVAGNSTTPRRCACTAGYHWSQDCECCRRNTECAPGLGAQHPLQLNKDTVCKPCLAGYFSDAFSSTDKCRPWTNCTFLGKRVEHHGTEKSDAVCSSSLPARKPPNEPHVYLP
notes: also called hRANK-Fc; hRANK-FC; not shown: Fc part of the bought fusion; not described
B3: murine RANKL heterodimeric variant mD2 (mouse Dimer 2) (ligand)
chain 1: EAQPFAHLVINAASIPSGSHKVTLSSWYHDRGWAKISNMTLSNGKLRVNQDGFYYLYANISFRHHETSGKVPTDYLQLMVYVVKTSIKIPSSHNLMKGGSTKNWSGNSEFHYYSINVGGFFKLRAGEEISIQVSNPSLLDPDQDATYFGAFKVQDID
chain 2: EAQPFAHLVINAASIPSGSHKVTLSSWYHDRGWAKISNMTLSNGKLRVNQDGYYYLYANICFRHHETSGKVPTDYLQLMVYVVKTSIKIPSSHNLMDGGSTKNWSGNSEFHFYSINVGGYFKLRAGEEISIQVSNPSLLDPDQDATYFGAFKVQDID
notes: range 160-316; Heterodimer of monomer A (His-tagged) and monomer B, co-expressed in E. coli; also called RANKL dimer 2; dRANKL D2; not shown: hexahistidine-tag fused to monomer A

For experiment [1], the target named is B2. Nature of the experiment: SPR on hRANK-Fc, 37 C. Here is the method:
(§1) A Biacore experiment was performed to determine the kinetics of binding of the dimeric variants. hRANK-FC (Sigma) was captured in flow cell 2 at a level of 40 RU by a 60 s injection pulse of a 0.7 ug/ml hRANK-FC solution at a flow rate of 50 uL/min. Flow cell 1 served as reference cell. Subsequently, serial dilutions ranging from 562 nM to 100 pM of murine RANKL wt (R&D systems), or the purified RANKL dimers mD1 and mD2 were injected over both flow cells at 50 uL/min and 37° C. Binding was measured in real time. After each cycle the protein A surface was regenerated with a 30 s pulse of 10 mM Glycine pH 1.5. Kd values were calculated by fitting the data to a langmuir 1:1 binding model using the BIAevaluation software as described before (30). (Table 6 and FIG. 6).
(§2) Kinetic binding parameters were measured in real time using SPR. RANKL dimer binding curves were recorded using concentrations ranging from 100 pM to 562 nM dimer 1 (mD1) or dimer 2 (mD2), trimeric murine wild-type RANKL was used as a control. Measurements were performed at 37° C. The dissociation constants (KD) were determined by fitting the data to a Langmuir 1:1 interaction model. […] The binding off-rate constant (koff) of wild-type murine RANKL was ˜2 to 6 fold slower than for dimer 1 and dimer 2.

The target in experiment [2] is T1, murine RANK-Fc (mouse, UniProt O35305 31-214).
T1 construct: also called mRANK-Fc; mRANK-FC; not shown: Fc part of the bought fusion; not described
T1 sequence (looked up): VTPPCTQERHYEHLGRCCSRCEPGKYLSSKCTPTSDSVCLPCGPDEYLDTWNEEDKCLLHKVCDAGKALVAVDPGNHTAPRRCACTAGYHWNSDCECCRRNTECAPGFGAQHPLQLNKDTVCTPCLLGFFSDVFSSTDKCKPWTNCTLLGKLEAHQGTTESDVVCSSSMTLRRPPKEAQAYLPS
Nature of the experiment: competitive ELISA on mRANK-Fc coated wells, competitor 2 nM flag-mRANKL WT, anti-flag detection. Here is the method:
The ability of mD1 and mD2 to compete with mRANKL WT for binding to mRANK-Fc was investigated using a competitive ELISA. Serial dilutions of mD1 or mD2 (0-400 nM) and a fixed concentration (2 nM) of flag-mRANKL WT were added to mRANK-Fc coated wells. A dose-dependent decrease of flag-mRANKL WT binding was observed upon increasing concentrations of mD1 and mD2 (FIG. 18A).
For orientation: An ELISA detects its analyte on a solid surface through an enzyme-linked reagent.

The target in experiment [3] is T1, murine RANK-Fc. Nature of the experiment: competitive ELISA on RANK-Fc coated wells, competitor flag-mRANKL (0-53 nM), anti-flag detection, global four parameter fit. Here is the method: The ability of dimer 1 and dimer 2 to compete with wild-type murine RANKL for binding to mRANK was investigated using a competitive ELISA. […] After washing off unbound RANKL, mRANK bound flag-mRANKL was detected by an anti-flag antibody. A RANKL dimer concentration dependant decrease in mRANK binding and right shift in the EC₅₀ of flag-mRANKL was observed (FIGS. 7 and 18B), indicating a competitive inhibition based mechanism. IC₅₀ values for dimer 1 and dimer 2 were calculated to be 4 nM by a global fit of the individual dose response curves using a four parameter logistic model.

The target in experiment [4] is B1. Nature of the experiment: SPR single cycle kinetics, hRANK-Fc captured at 20-40 RU, 1:1 fit. As for the experimental part: (§3) Considering the high similarity between human RANKL and murine RANKL (>88%) the murine dimers were also tested for hRANK binding. Binding to hRANK-Fc and mRANK-Fc (both from R&D Systems) was recorded for five consecutive concentrations of murine flag RANKL WT, D1 (mD1) or D2 (mD2) (˜0.3-15 nM) using SPR with a single cycle kinetics based approach. The capture level of mRANK-Fc and hRANK-Fc was low (20-40 RU) in order to ensure 1:1 binding. Both WT and the D1 and D2 dimeric variants bound with high affinity towards the mRANK receptor and to the human RANK receptor (FIG. 16: Table 8).

The target of experiment [5] is B3. The experiment is described as above. Here is the method:
as §3

For experiment [6], the target named is B1. Kind of experiment: SPR (Biacore), hRANK-Fc captured on protein A at 40 RU, 37 C, 1:1 Langmuir fit. Here is the method: as §1, §2
Experiment [7] concerns the target B3. The experiment is described as above. As for the experimental part: as §1, §2
The target in experiment [8] is B2. The experiment is described as above. Here is the method: as §1, §2
Experiment [9] has as its target T1, murine RANK-Fc. Kind of experiment: ELISA, immobilized mRANK-Fc, % binding normalised to the highest concentration.

Usually IC50 stands for the concentration that gives 50% inhibition. As a reminder, the Kd is the concentration at which binding is half-saturated. Broadly, the koff is the first-order rate constant of dissociation. A high value points to fast dissociation. For orientation: kon means a measure of how fast the partners come together. Low values mean slower complex formation, high ones faster complex formation. In general, EC50 (read off the curve) refers to the concentration at which the effect is half-maximal.

For B1, in experiment [1], the “fold faster kon than wild-type murine RANKL” value was around 5 fold. Moreover, the IC50 turned out to be 31 nM in experiment [2] and 4 nM in experiment [3].

In [4], B2 showed a Kd of 0.129 nM, a koff of 0.00108 s⁻¹ and an on-rate (kon) of 8.8e+06 M⁻¹ s⁻¹. In [5], this molecule yielded a Kd of 0.0259 nM, a koff of 0.000173 s⁻¹ and a kon of 6.69e+06 M⁻¹ s⁻¹. In experiment [6], the Ka stood at 2.33e+10 M⁻¹, binding was put at a Kd of 0.0446 nM, the off-rate constant (koff) was found to be 0.000197 s⁻¹ and the kon is 4.52e+06 M⁻¹ s⁻¹. In experiment [7], this molecule came in with a Ka of 1.8e+10 M⁻¹, a Kd of 0.0619 nM, a dissociation rate constant (koff) of 0.000554 s⁻¹ and a kon of 8.55e+06 M⁻¹ s⁻¹.

As for B3, in experiment [1], the “fold faster kon than wild-type murine RANKL” value was around 10 fold. Besides, the results for the IC50 in experiment [2] and in [3] were 28 nM and 4 nM, respectively.

B4: trimeric murine wild-type RANKL (R&D systems) (ligand, mouse, UniProt O35235 158-316, looked up)
chain: KPEAQPFAHLTINAASIPSGSHKVTLSSWYHDRGWAKISNMTLSNGKLRVNQDGFYYLYANICFRHHETSGSVPTDYLQLMVYVVKTSIKIPSSHNLMKGGSTKNWSGNSEFHFYSINVGGFFKLRAGEEISIQVSNPSLLDPDQDATYFGAFKVQDID
notes: Bought soluble trimeric protein; also called murine RANKL wt; mRANKL WT
In [8], B4 gave a Ka of 9.23e+09 M⁻¹, a Kd of 0.11 nM, a koff of 8.97e-05 s⁻¹ and a kon of 827000 M⁻¹ s⁻¹. In experiment [9], the “EC50 (read off the curve)” value is around 0.1 nM.

For the origin of these results see US20140096274A1 (published 2014).
